Experimental findings from patent publication US5318897 are described below.

Assay [1] deals with P-F-R-MCA.
The target in assay [2] is T1, Boc-L-R-R-MCA.
T1 sequence (peptide, N-terminal Boc; C-terminal methylcoumarinamide (MCA)): LRR

The target in assay [3] is T2, Z-R-R-MCA.
T2 sequence (peptide, N-terminal Z; C-terminal methylcoumarinamide (MCA)): RR

Assay [4] addresses T3, vasoactive intestinal peptide (VIP).
T3 sequence (peptide, C-terminal amide (--CO--NH2)): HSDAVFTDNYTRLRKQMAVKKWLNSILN

For assay [5] the target is unchanged. The assay can be described thus: binding studies under conditions that did not permit VIP hydrolysis (high ionic strength).

Take “bovine pancreatic trypsin (from UniProt P00760) (enzyme)”: the fluorescence of the leaving group methylcoumarinamide came out at 194 units in assay [1], 263 units in assay [2] and 179 units in assay [3].

B1: monoclonal antibody c23.5 (IgG2a, kappa) (antibody, V domains shown)
VH: EVQLQESGGGLVKPGGSLKLSCAASGFTFSIYGMSWFRQTPEKRLEWVATISGGDTYTYYPDSVKGRFTISRDNAKNNLFLQMSSLRSEDTALYFCGRGIAYWGQGTLVTVSA
VL: DIVLTQSPASQSASLGESVTITCLASQTIGTWLPWYQQKLGKSPQLLIYAATSLADGVPSRFSGSGSATKFSFKISSLQAEDFVSYNCQHLYSTPLTFGGGTKL
For B1, in assay [4], the Km worked out at 2 nM and the kcat was 1.33e-06 s⁻¹. This molecule displayed a Kd in assay [5] of 3.4 nM. This molecule came in with a fluorescence of the leaving group methylcoumarinamide in assay [2] below 1 unit. The same molecule registered a fluorescence of the leaving group methylcoumarinamide in assay [3] below 1 unit.
